Laboratory results from patent publication US20260191981A1 (ARROWHEAD PHARMACEUTICALS, published 2026).

What was measured:
[1] = target: T1, cynomolgus monkey transferrin receptor 1 (cTfR1) (cynomolgus monkey, UniProt H9EXL1 89-760 (rhesus entry)); assay: competition ELISA, Fab
T1 construct: The ELISA against cTfR1 is not described in the text

[2] = target: T1, cynomolgus monkey transferrin receptor …; assay: competition phage ELISA (phage-displayed Fab)
[3] = target: T2, his-tagged cTfR1 (Acro Biosystems p/n TFR-C524a) (cynomolgus monkey, UniProt H9EXL1 89-760 (rhesus entry)); assay: SPR, Biacore X100, His-tagged TfR1 captured by anti-His
T2 construct: Bought reagent of the SPR assay
Protocol: Samples were analyzed via Surface Plasmon Resonance (SPR) to determine kinetics against cynomolgus monkey transferrin receptor 1 (cTfR1). Briefly, a Biacore X100 (Cytiva) was used for SPR measurements using a CM5 chip (carboxymethylated dextran surface, Cytiva p/n BR100399) with anti-histidine antibody irreversibly immobilized on the surface of both flow cells for the reversible capture of his-tagged cTfR1 (Acro Biosystems p/n TFR-C524a). The anti-histidine antibody was irreversibly immobilized via amine coupling using Cytiva provided Amine Coupling Kit (p/n BR100050) and His Capture Kit (p/n 28995056). […] Sample diluent was prepared in house and is composed of 10 mM HEPES buffer pH 7.4, 150 mM NaCl, 3 mM EDTA, and 0.05% Tween 20. Cytiva caps and vials compatible for Biacore X₁₀₀ were used for sample analysis. Each analysis cycle consists of a capture step followed by sample or blank injection, and finally a regeneration step that removes any sample and cTfR1 on the sensor surface. The capture step was performed at 5 μL/min with a contact time of 24 seconds over the active flow cell only, followed by a fluidics wash with 0.1% Tween 20. Generally, 2 μg/mL hTfR1 was a sufficient concentration to observe adequate hTfR1 captured consistently between cycles. Sample or buffer was injected at 30 μL/min with a contact time of 180 seconds and dissociation time of 180 seconds followed by a fluidics wash with 0.1% Tween 20. A 10 mM glycine solution at pH 1.5 (provided in His Capture Kit) was used for regeneration at 30 μL/min with a 60 second contact time. A cycle was performed for each sample concentration analyzed along with one cycle repeating one concentration for variability evaluation and 2-3 buffer cycles. Results were analyzed in Biacore Evaluation Software. Buffer cycles were averaged and subtracted from sample injections prior to kinetic fitting. A monovalent or kinetic fit was specified as relevant for the sample analyzed. Accuracy of the fit is evaluated and data points are excluded as applicable.

[4] = target: T3, human transferrin receptor 1 (hTfR1) (human, UniProt P02786 89-760, limits assumed); assay: competition phage ELISA (phage-displayed Fab)
T3 construct: The selections used the biotinylated ECD domain of hTfR1

[5] = target: T4, his-tagged hTfR1 (Acro Biosystems p/n CD1-H5243) (human, UniProt P02786 89-760); assay: SPR, Biacore X100, His-tagged TfR1 captured by anti-His
T4 construct: Bought reagent of the SPR assay
Protocol: Samples were analyzed via Surface Plasmon Resonance (SPR) to determine kinetics against human transferrin receptor 1 (hTfR1). Briefly, a Biacore X100 (Cytiva) was used for SPR measurements using a CM5 chip (carboxymethylated dextran surface, Cytiva p/n BR100399) with anti-histidine antibody irreversibly immobilized on the surface of both flow cells for the reversible capture of his-tagged hTfR1 (Acro Biosystems p/n CD1-H5243). The anti-histidine antibody was irreversibly immobilized via amine coupling using Cytiva provided Amine Coupling Kit (p/n BR100050) and His Capture Kit (p/n 28995056). […] Sample diluent was prepared in house and is composed of 10 mM HEPES buffer pH 7.4, 150 mM NaCl, 3 mM EDTA, and 0.05% Tween 20. Cytiva caps and vials compatible for Biacore X100 are used for sample analysis. Each analysis cycle consists of a capture step followed by sample or blank injection, and finally a regeneration step that removes any sample and hTfR1 on the sensor surface. The capture step was performed at 5 μL/min with a contact time of 24 seconds over the active flow cell only, followed by a fluidics wash with 0.1% Tween 20. Generally, 2 μg/mL hTfR1 is a sufficient concentration to observe adequate hTfR1 captured consistently between cycles. Sample or buffer was injected at 30 μL/min with a contact time of 180 seconds and a dissociation time of 180 seconds followed by a fluidics wash with 0.1% Tween 20. A 10 mM glycine solution at pH 1.5 (provided in His Capture Kit) was used for regeneration at 30 μL/min with a 60 second contact time. A cycle was performed for each sample concentration analyzed along with one cycle repeating one concentration for variability evaluation and 2-3 buffer cycles. Results were analyzed in Biacore Evaluation Software. Buffer cycles were averaged and subtracted from sample injections prior to kinetic fitting. A monovalent or kinetic fit was specified as relevant for the sample analyzed. Accuracy of the fit was evaluated and data points are excluded as applicable. […]

[6] = target: T3, human transferrin receptor 1 (hTfR1); assay: competition ELISA, Fab

T1 sequence (chain, as listed by the source): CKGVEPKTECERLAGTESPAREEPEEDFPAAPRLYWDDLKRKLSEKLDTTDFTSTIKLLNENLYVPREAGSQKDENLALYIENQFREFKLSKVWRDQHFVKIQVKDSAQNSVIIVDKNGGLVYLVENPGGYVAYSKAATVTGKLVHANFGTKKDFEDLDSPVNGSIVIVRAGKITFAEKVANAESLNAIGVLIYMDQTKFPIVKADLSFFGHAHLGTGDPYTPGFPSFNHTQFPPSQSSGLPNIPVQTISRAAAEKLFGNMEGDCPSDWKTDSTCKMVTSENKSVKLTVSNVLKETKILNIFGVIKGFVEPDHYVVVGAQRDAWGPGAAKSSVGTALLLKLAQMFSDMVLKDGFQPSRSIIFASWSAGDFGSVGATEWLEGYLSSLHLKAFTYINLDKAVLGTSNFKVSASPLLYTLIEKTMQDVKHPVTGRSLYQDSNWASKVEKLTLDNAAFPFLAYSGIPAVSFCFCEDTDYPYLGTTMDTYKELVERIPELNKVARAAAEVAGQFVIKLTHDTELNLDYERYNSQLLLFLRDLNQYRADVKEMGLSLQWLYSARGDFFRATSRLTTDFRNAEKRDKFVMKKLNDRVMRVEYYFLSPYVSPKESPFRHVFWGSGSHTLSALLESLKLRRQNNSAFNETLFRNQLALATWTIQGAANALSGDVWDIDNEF
T2 sequence (chain, as listed by the source): as above
T3 sequence (P02786 89-760 limits assumed): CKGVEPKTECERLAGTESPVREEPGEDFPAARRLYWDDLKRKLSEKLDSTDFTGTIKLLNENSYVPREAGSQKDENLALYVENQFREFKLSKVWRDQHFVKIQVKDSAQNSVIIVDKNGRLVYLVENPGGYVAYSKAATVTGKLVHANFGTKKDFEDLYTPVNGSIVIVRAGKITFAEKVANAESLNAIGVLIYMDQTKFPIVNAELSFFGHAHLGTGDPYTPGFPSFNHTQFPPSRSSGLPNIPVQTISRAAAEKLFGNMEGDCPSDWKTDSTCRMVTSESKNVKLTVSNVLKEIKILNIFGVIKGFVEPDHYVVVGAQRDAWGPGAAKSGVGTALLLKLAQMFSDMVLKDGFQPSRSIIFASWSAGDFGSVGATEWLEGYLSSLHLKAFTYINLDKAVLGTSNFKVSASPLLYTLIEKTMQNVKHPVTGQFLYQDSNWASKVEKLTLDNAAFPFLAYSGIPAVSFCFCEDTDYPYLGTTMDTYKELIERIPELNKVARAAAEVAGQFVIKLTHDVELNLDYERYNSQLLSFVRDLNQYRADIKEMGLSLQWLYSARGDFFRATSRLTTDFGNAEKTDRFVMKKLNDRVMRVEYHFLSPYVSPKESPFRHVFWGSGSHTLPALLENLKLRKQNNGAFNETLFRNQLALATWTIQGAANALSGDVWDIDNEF
T4 sequence (P02786 89-760 limits assumed): as above

Kd [1] [nM] | Kd [2] [nM] | Kd [3] [nM] | koff [3] [s⁻¹] | kon [3] [M⁻¹ s⁻¹] | Kd [4] [nM] | Kd [5] [nM] | koff [5] [s⁻¹] | kon [5] [M⁻¹ s⁻¹] | Kd [6] [nM] | Binder
5.15 | 1.75 | 1.75 | 0.0037 | 2.11e+06 | 0.49 | 0.708 | 0.00101 | 1.42e+06 | 0.95 | Fab0061 (Fab, V domains shown) VH: EVQLVESGGGLVQPGGSLRLSCATSGYTFTSYWMHWVRQAPGKGLEWVAEINPTNGRVNYIEKFKSRITLSVDKSKSTVYLQMNSLRAEDTAVYYCARGTRAYHYWGQGTLVTVSS VL: DIQLTQSPSSLSASVGDRVTITCRASDGLYSNLAWYQQKPGKAPKLLIYDATKLASGVPSRFSGSGSGTDYTLTISSLQPEDFATYYCQHFWGTPLTFGQGTKVEIKR
9.14 | 3.48 | 3.22 | 0.00515 | 1.6e+06 | 0.65 | 0.993 | 0.00117 | 1.18e+06 | 1.1 | Fab0062 (Fab, V domains shown) VH: EVQLVESGGGLVQPGGSLRLSCATSGYTFTSYWMHWVRQAPGKGLEWVAEINPTNGRVNYIEKFKSRITLSVDKSKSTVYLQMNSLRAEDTAVYYCARGTRAYHYWGQGTLVTVSS VL: DIQLTQSPSSLSASVGDRVTITCRASDGLYSNLAWYQQKPGKAPKLLIYDAFNLASGVPSRFSGSGSGTDYTLTISSLQPEDFATYYCQHFWGTPLTFGQGTKVEIKR
2.87 | 0.57 | 1.45 | 0.00259 | 1.79e+06 | 0.26 | 0.413 | 0.00071 | 1.72e+06 | 0.33 | Fab0065 (Fab, V domains shown) VH: EVQLVESGGGLVQPGGSLRLSCATSGYTFTSYWVHWVRQAPGKGLEWVAEINPTNGRSNYIEKFKSRITLSVDKSKSTVYLQMNSLRAEDTAVYYCARGTRAYHYWGQGTLVTVSS VL: DIQLTQSPSSLSASVGDRVTITCRASDNLYRNLAWYQQKPGKAPKLLIYDATKLASGVPSRFSGSGSGTDYTLTISSLQPEDFATYYCQHFWGTPLTFGQGTKVEIKR
3.02 | 0.95 | 1.75 | 0.00328 | 1.87e+06 | 0.35 | 0.543 | 0.000804 | 1.48e+06 | 0.52 | Fab0067 (Fab, V domains shown) VH: EVQLVESGGGLVQPGGSLRLSCATSGYTFTSYWVHWVRQAPGKGLEWVAEINPTNGRTNYIEKFKSRITLSVDKSKSTVYLQMNSLRAEDTAVYYCARGTRAYHYWGQGTLVTVSS VL: DIQLTQSPSSLSASVGDRVTITCRASDNLYRNLAWYQQKPGKAPKLLIYDATKLASGVPSRFSGSGSGTDYTLTISSLQPEDFATYYCQHFWGTPLTFGQGTKVEIKR
5.57 | 2.63 | 2.72 | 0.00446 | 1.64e+06 | 0.48 | 0.598 | 0.00105 | 1.75e+06 | 0.67 | Fab0063 (Fab, V domains shown) VH: EVQLVESGGGLVQPGGSLRLSCATSGYTFTSYWMHWVRQAPGKGLEWVAEINPTNGRVNYIEKFKSRITLSVDKSKSTVYLQMNSLRAEDTAVYYCARGTRAYHYWGQGTLVTVSS VL: DIQLTQSPSSLSASVGDRVTITCRASDGLYSNLAWYQQKPGKAPKLLIYDATRLASGVPSRFSGSGSGTDYTLTISSLQPEDFATYYCQHFWGTPLTFGQGTKVEIKR
5.04 | 2.02 | 2.45 | 0.00367 | 1.5e+06 | 0.34 | 0.754 | 0.00111 | 1.47e+06 | 0.67 | Fab0064 (Fab, V domains shown) VH: EVQLVESGGGLVQPGGSLRLSCATSGYTFTSYWMHWVRQAPGKGLEWVAEINPTNGRVNYIEKFKSRITLSVDKSKSTVYLQMNSLRAEDTAVYYCARGTRAYHYWGQGTLVTVSS VL: DIQLTQSPSSLSASVGDRVTITCRASDGLYSNLAWYQQKPGKAPKLLIYDAKNLASGVPSRFSGSGSGTDYTLTISSLQPEDFATYYCQHFWGTPLTFGQGTKVEIKR
4.68 | 1.29 | 2.72 | 0.00375 | 1.38e+06 | 0.35 | 0.783 | 0.00108 | 1.38e+06 | 0.75 | Fab0069 (Fab, V domains shown) VH: EVQLVESGGGLVQPGGSLRLSCATSGYTFTSYWVHWVRQAPGKGLEWVAEINPTNGRSNYIEKFKSRITLSVDKSKSTVYLQMNSLRAEDTAVYYCARGTRAYHYWGQGTLVTVSS VL: DIQLTQSPSSLSASVGDRVTITCRASDGLYSNLAWYQQKPGKAPKLLIYDATKLASGVPSRFSGSGSGTDYTLTISSLQPEDFATYYCQHFWGTPLTFGQGTKVEIKR
9.4 | 1.34 | 4.35 | 0.00509 | 1.17e+06 | 0.87 | 1.41 | 0.00139 | 985000 | 0.91 | Fab0066 (Fab, V domains shown) VH: EVQLVESGGGLVQPGGSLRLSCATSGYTFTSYWVHWVRQAPGKGLEWVAEINPTNGRVNYIEKFKSRITLSVDKSKSTVYLQMNSLRAEDTAVYYCARGTRAYHYWGQGTLVTVSS VL: DIQLTQSPSSLSASVGDRVTITCRASDGLYSNLAWYQQKPGKAPKLLIYDAFNLASGVPSRFSGSGSGTDYTLTISSLQPEDFATYYCQHFWGTPLTFGQGTKVEIKR
7.37 | 1.75 | 2.34 | 0.00366 | 1.57e+06 | 0.43 | 0.97 | 0.00113 | 1.17e+06 | 0.84 | Fab0068 (Fab, V domains shown) VH: EVQLVESGGGLVQPGGSLRLSCATSGYTFTSYWVHWVRQAPGKGLEWVAEINPTNGRVNYIEKFKSRITLSVDKSKSTVYLQMNSLRAEDTAVYYCARGTRAYHYWGQGTLVTVSS VL: DIQLTQSPSSLSASVGDRVTITCRASDGLYSNLAWYQQKPGKAPKLLIYDATKLASGVPSRFSGSGSGTDYTLTISSLQPEDFATYYCQHFWGTPLTFGQGTKVEIKR
4.58 | 1.56 | 2.71 | 0.00357 | 1.32e+06 | 0.49 | 0.907 | 0.00111 | 1.22e+06 | 0.81 | Fab0060 (Fab, V domains shown) VH: EVQLVESGGGLVQPGGSLRLSCATSGYTFTSYWVHWVRQAPGKGLEWVAEINPTNGRTNYIEKFKSRITLSVDKSKSTVYLQMNSLRAEDTAVYYCARGTRAYHYWGQGTLVTVSS VL: DIQLTQSPSSLSASVGDRVTITCRASDGLYSNLAWYQQKPGKAPKLLIYDATKLASGVPSRFSGSGSGTDYTLTISSLQPEDFATYYCQHFWGTPLTFGQGTKVEIKR
